{"source": "the DeepSol protein solubility set", "data": [{"assay": "soluble on expression in E. coli; label from the status in PepcDB or PDB records", "values": [{"sequence": "MKYQLTALEARVIGCLLEKQVTTPEQYPLSVNGVVTACNQKTNREPVMNLSESEVQEQLDNLVKRHYLRTVSGFGNRVTKYEQRFCNSEFGDLKLSAAEVALITTLLLRGAQTPGELRSRAARMYEFSDMAEVESTLEQLANREDGPFVVRLAREPGKRENRYMHLFSGEVEDQPAVTDMSNAVDGDLQARVEALEIEVAELKQRLDSLLAHLGD", "soluble on expression in E. coli": "soluble"}, {"sequence": "MLACSFKAVNGGFRHLLIRMIIDPPHHLFDTALARQIAIHILHYQFEVTRPRLVAMQEHERTAVARSLRTINRRLEEPVFAKAYRRWAGRDGTVSRDCFKFDCCA", "soluble on expression in E. coli": "not soluble"}, {"sequence": "MLAIFHEAFAHPPEELNSPASEKCSKQPKLPEETLNDFLLRYPLNTFSMSFGQAAVLAYVRPSASFSIHQRLFCGFDDIYCLFFGSLNNLCQLNKQYGLTKTTNEAMFVIEAYRTLRDRGPYPADQVVKDLDGSFSFVVYDSKAGSVFTALVLIHKISPRLLELNFNGSDGGVKLYWGIAADGSVVISDDLDVIKEGCAKSFAPFPTGCMFHSEGGLMSFEHPMNKIKAMPRVDSEGVLCGANFKVDVYNRVNSIPRRGSEANWSL", "soluble on expression in E. coli": "soluble"}, {"sequence": "MLAQLTISNFAIVRELEIDFHSGMTVITGETGAGKSIAIDALGLCLGGRAEADMVRTGAARADLCARFSLKDTPAALRWLEENQLEDGHECLLRRVISSDGRSRGFINGTAVPLSQLRELGQLLIQIHGQHAHQLLTKPEHQKFLLDGYANETSLLQEMTARYQLWHQSCRDLAHHQQLSQERAARAELLQYQLKELNEFNPQPGEFEQIDEEYKRLANSGQLLTTSQNALALMADGEDANLQSQLYTAKQLVSELIGMDSKLSGVLDMLEEATIQIVEASDELRHYCDRLDLDPNRLFELEQRISKQISLARKHHVSPETLPQYYQSLLEEQQQLDDQADSQETLALAVTKHHQQALETARALHQQRQHYAEELAQLITDSMHALSMPHGQFTIDVKFDEHHLGADGADRIEFRVTTNPGQPMQPIAKVASGGELSRIALAIQVITARKMETPALIFDEVDVGISGPTAAVVGKLLRQLGESTQVMCVTHLPQVAGCGHQHYFVSKETDGAMTETHMQSLNKKTRLQELARLLGGSEVTRNTLANAKELLAA", "soluble on expression in E. coli": "not soluble"}, {"sequence": "MLAVSSAIVSSAMYILSFPGQASGITKEQVTKHMKKESFKQADIYYTSKEKSLLPLTKETLEYAVSINQIMIGYSNQKPIDIIFFLMKNRWRLTPVYWMLEHHHHHH", "soluble on expression in E. coli": "not soluble"}, {"sequence": "MLAVVDEEGTPVAGAMGFAQVVRDGLVVDYIGAVDILRELKATLEESLGAELLKAGVAYPPGTSPGDQKALHYIAEAAGFNVIAALDEPTAANNVLNIEDGAVIDIGGGTTGTAVIGQGQVVCVADEPTGGTHVSLVIAGAYRLPFAEAEKLKMDSCKHQELLPIIKPVIEKIAGIIRQHIQEHPVDQVYLVGGTSCFTGFETIVAAELQRPVIKPANPFLVTPLGIALAAAKTCSNP", "soluble on expression in E. coli": "not soluble"}, {"sequence": "MLDEKASEEEIKAMFLMLSGGLKSQPGEDEKATAVAYLFSLDGLSRWAIKTATRDVMKGKAEGLSTTFMPASADLLLYCEKLEDDIRTTVKGIFTSLDRPEIKPKGEPISAEKWDKLMQMLEKPKIGLNPFQ", "soluble on expression in E. coli": "not soluble"}, {"sequence": "MLDKLDAALRFQQEALNLRAQRQEVLAANIANADTPGYQARDIDFASELKKVMQRGRDATSVVALTMTSTQHIPAQALTPPTAELQYRIPDQPSLDGNTVDMDRERTQFADNSLQYQMSLSALSGQIKGMMNVLQSGN", "soluble on expression in E. coli": "not soluble"}, {"sequence": "MLDLVNQLELDSQMKQFKLVSQMTRQDVIILDEPGYLPFSQKRGALLFHLMSQLHENTSVIITTNLEFSEWGTLFTEAKMTNALLDRLIHHCHMLETGNESYRFKHRNLEHHHHHH", "soluble on expression in E. coli": "not soluble"}, {"sequence": "MLDTAAIIISQGKKIAYAYAEGVNDNMTQSHFHDFFELYYLLEGERMHMIEGEIYHLTANDFVLFPPHIMHHSYGEKDMPFKRIVLYFSPDLIANDTICQLLSEKELLFVNEGYIPNQILSLLLSLTHEIDVPGKYHDAYICNQLNGLLLNMLRLDFEAVKSIPKTRSAKAVDYIHNHYMEDISVNQLAEILYVSPYHLCHEFKNATGKTIIQYLNTTRILHAQRLMLETDYNITQISREVGFSNLTHFNRTFKKITGVAPREKKKLYQK", "soluble on expression in E. coli": "not soluble"}, {"sequence": "MLDWEQIFATRSSRMKASEIRELLKLLEQPDIISFAGGIPDPALFPAEEFQQAYAEIFSGAQVNAALQYSVSEGYKPLREWLAGEMDKIGIDCTADNVFIVSGSQQGLDYLGKLFLSPKDTALVTWPTYLGALSAFNAYEPNYDQLNPGGNRTPEAYRETAAKLGGAVKFAYLSADFSNPTGETVDLAGREKVLALADELDIAVIEDAAYQSLRYDGEAVPPIMALDIARSGGIENTRTIYCGSFSKTLAPGLRVGYIVASAPVIRKLVLMKQAADLHSSTINQIAIERVAARGFDKQVAKIKAAYSARRDAMLSALEKYMPKTTSWTKPEGGMFIWVTLPEGMDGAALLAKSIATEKVAFVPGRAFFADGSGTNTLRISFSCANEAMIEEGMKRLGRLITTAQAETTEVLAAI", "soluble on expression in E. coli": "not soluble"}, {"sequence": "MLEQLPYLALKTPPKTTALLKAECADFIVKEHLGYEMSGDGEFVALYVRKTDCNTLFVGEKLAKFAGVSERNMGYAGLKDRRAVTEQWFCLQMPGMETPDFSQFELDGVEILTVTRHNRKIRTGSLEGNYFDILLRGAEESDELKARLDFVANFGFPNYFTEQRFGRDGHNLTQALRWAQGEIKVKDRKKRSFYLSAARSEIFNLVVAARIEKSTINQVLPNDIVQLAGSHSWFKADEKEDLTALQVRLENQDILLTAPLIGEDILAASEIENEIVNQHSAFDPLMKQERMKAARRPLLMKAKGFSWAFEPEGLRLKFYLPAGSYATALVRELVNYTEE", "soluble on expression in E. coli": "soluble"}, {"sequence": "MLESNENRIQIMSTIAKIYRAMSRELNRRLGELNLSYLDFLVLRATSDGPKTMAYLANRYFVTQSAITASVDKLEEMGLVVRVRDREDARKILIEITEKGLETFNKGIEIYKKLANEVTGDLSEDEVILVLDKISKILKRIEEISQ", "soluble on expression in E. coli": "soluble"}, {"sequence": "MLETKDLNLFLGNKHVLKNISLSIPVRGEIIGIMGPNGAGKSSLIKSLIGEFNATGTKLLYNKPIQQQLQHITYIPQKAHIDLDFPISVEQVILSGCYKEIGWFRRPNKSARDKLKQLLSDLELESLRHRQISELSGGQLQRVLVARALMSESEVYFLDEPFVGIDFSSEKLIMTKIENLKQQGKLILIIHHDLSKAKQYFDRIILLNQTLRYFGDSEEAMSVTRLNETFMSSTDCSDPSQRSNITC", "soluble on expression in E. coli": "not soluble"}, {"sequence": "MLEVIATCLEDVKRIESAGGKRIELISSYTEGGLTPSYAFIKKAVEVVSIPIHVMIRPHAKSFTYTEEEIEMMKEDIIVAQKLGAAGVVLGVLNERNEVDEEKLADLLSVVDGINVTYHRAIDDIKNPVEAMSTLKKFHKVTHVLTSGGQGNIVENIPVLTEMQKVSEGQIQLVAGAGVTKENIKRLLDETGITQAHVGTAVREGKSCFSEIDPNLVQELVEIIKLEHHHHHH", "soluble on expression in E. coli": "soluble"}, {"sequence": "MLEYKLIRSKRRKTLALQVKHGQVTVRAPHYVTSAFIDTFIQEKSAWLRSKLAEQQKTPEYCDFSQGSNLLYLGEKVILNICIAKKSEVYFSHLVIAEIEPKNYQEITTKQLNVAISEKIHSRLINPLAISKQIKKQLEVYFKQQAEQLFSERLERISKQISLCPTAINIRQYRARWGSCNNRGEVSFNYLLMMTPLTVIDYVIVHELCHLEHLNHSKEFWHLVEKFCPNYEIAKKWLNTYQSLEHHHHHH", "soluble on expression in E. coli": "soluble"}, {"sequence": "MLFLFVDGLGLGGALEDLFPFLLALAPTPLDATLGVEGLPQSGTGQTALLTGENAARLLGHHQGPFPSPRLRPLLAQGLYAWAKGKGLRVLHANGYRPDYLRRATEGKRLLLSAFAQAARLAGIPLLPLGHPLALLPGFWEDPYGAGAKAAALARAFDLVVLEYWALDLAAHRHPESLPDRFRELTLFLQGFLAEGGVLLLASDHGNAEEPWHPRHTLNPVPLVYTEEAPPPPEDLTGVFPWLRTIITSKTNKSDRNT", "soluble on expression in E. coli": "soluble"}, {"sequence": "MLFLPILILNLLIITHAIDIIPREVLFQDPKYSSVSLSPDAKQVGYVAPDENGIRNVFTRCSSCSYSRQVTFETEHPILNYVWTAIPDVILFTQDNHGDENTRIYKKNISATAIAADKTQRVVISEKPMVKAMILSNNLISETVLIGMNDENPALHNIYAFNCQTDELKLVLQNRRFSIFFFDNDLNVRLASEEGPDGEMIYYRPRSNEGARTTEQNTWVEYLRIQHDDKAITMPITFDKSNNFMYWIMGDGSDLGNLVVFPFEDPQQKEILYTAQRAQIGNVLIHPTDKTLLAVTEVYHKPELFVANETFMEDLQYLVNMKPSGSMNIVSMSIDMSTWLVTYSSSDEPYDIYLYRRWNKKAELFMSTRPELKKYTLNKQIGFDFRARDEMTIQAYLSLPPQAPLLKSSQVPDGDRPYANLGMIPAVPQKMIVLVHGGPKARDHYGFSPMNAWLTNRGYSVLQVNFRGSTGFGKRLTNAGNGEWGRKMHFDILDAVEFAVSKGIANRSEVAVMGGSYGGYETLVALTFTPQTFACGVDIVGPSNLISLVQAIPPYWLGFRKDLIKMVGADISDEEGRQSLQSRSPLFFADRVTKPIMIIQGANDPRVKQAESDQFVAALEKKHIPVTYLLYPDEGHGVRKPQNSMEQHGHIETFLQQCLGGETQPFQPGQYNSSAIIKKIGIEGAAIARQNLQIAQNQFAQQLPRGPVAPSIFYRPPVRAQRVMLAPNQNVMNRIFPVQG", "soluble on expression in E. coli": "soluble"}, {"sequence": "MLGAIIGDIVGSVYEWNNIKTKDFPLFRKDCFFTDDTVMTCAVAEAIMNGGQKDDFIDAMKKYGRMYPNADYGARFNAWLNSDNREPYNSFGNGSAMRISPCAWIMDCGFYAKTGIWPSSRGLTSLSAEVTHNHPEGVKGAMATADAIFLCRFYFGGYCREYEQSINDNPTECKRRIKDYIEKEYDYNLSQTLDEIRPNYRFNETCQETVPQAIIAFLESRDFEDAIRNAISLGGDSDTLAAITCSIAEAAYGIPDWIKDKAYSYLDEPLKDVVRRWENRIKAY", "soluble on expression in E. coli": "not soluble"}, {"sequence": "MLGKDYMLAIILVNCDDDLWGDHSLEVEAGLPPGWRKIHDAAGTYYWHVPSGSTQWQRPTWELGDAEDPGTGTEGIWGLRPPKGRSFSSLESSLDRSNSLSWYGGESYIQSMEPGAKCFAVRSLGWVEVPEEDLAPGKSSIAVNNCIQQLAQTRSRSQPPDGAWGEGQNMLMILKKDAMSLVNPLDHSLIHCQPLVHIRVWGVGSSKGRDRDFAFVASDKDSCMLKCHVFCCDVPAKAIASALHGLCAQILSERVEVSGDASCCSPDPISPEDLPRQVELLDAVSQAAQKYEALYMGTLPVTKAMGMDVLNEAIGTLTARGDRNAWVPTMLSVSDSLMTAHPIQAEASTEEEPLWQCPVRLVTFIGVGRDPHTFGLIADLGRQSFQCAAFWCQPHAGGLSEAVQAACMVQYQKCLVASAARGKAWGAQARARLRLKRTSSMDSPGGPLPLPLLKGGVGGAGATPRKRGVFSFLDAFRLKPSLLHMP", "soluble on expression in E. coli": "soluble"}, {"sequence": "MLGSLAAEKRSVFQTSCCVRYKGCMLGVGPTVWGVVWGLGCTVEARGLRKRFGGRTAVAGVSFSVGDGERACIMGPNGSGKTTLLRMVSGVLRPSGGSVRVCGYDVWGDGWREARGLIGFAPQDPPMARRMTGAEYITVVGGLLGLSPGVARREARRVLEMLGFEDVLGRVVARLSGGQRRALGIALALASNPEVVVLDEPGSGLDVRARESLWASLRKAFKGRTVLFSSHDPQEAEAESDRVLIMHRGRLAAWGKPRELIQRYAPKPRVRVWADRAPDGLEPVHTGPGFSDYLIEAPGDVARIASAYSGAGILVERIEVLKPSLREVFFAVTGEEMD", "soluble on expression in E. coli": "soluble"}, {"sequence": "MLGVRMSGSVLDEEAEKLMDYDYLLEKLYKKVPPKSGTSEYRIPEPQIIRIGSQTVIRNFREIAQALKRDPKLVARYLQKELATAASYEEESGQLILNVKVSRKVVNQFLQLFMKTYVRCPTCGSIDTKLLRQERAYMLKCEACGAEQPVKPI", "soluble on expression in E. coli": "soluble"}]}]}
